Assays:
[1] = Solubility of the dried iron (III) casein N-acetyl-L-aspartylated complex; type: physicochemical
Method: (§1) The moist pure product obtained in the previous stage is dried under vacuum, at a temperature increasing from 60° C. to 70° C., for an overall period of 24 hours. After the desiccation process, 6.5 g of pure iron (III) casein N-acetyl-L-aspartylated complex are obtained, with a water content <5 wt % (Karl Fisher), having the following chemical and physicochemical characteristics:
as §1, with “6.6” for “6.5”, “casein:” for “casein”, “content<5” for “content <5”
as §1, with “6.4” for “6.5”, “content<5” for “content <5”, “characteristics: […]” for “characteristics:”

[2] = tested on: patients with iron deficiency anaemia; conditions: cited from earlier work
[3] = tested on: rats; conditions: complex containing 5% iron; cited from earlier work
[4] = tested on: dogs; conditions: complex containing 5% iron; cited from earlier work

Substance: ferro-N-acetyl-L-aspartylated casein
- Solubility at alkaline pH values [1]: completely soluble at alkaline pH values

Substance: iron (III) casein N-acetyl-L-aspartylated complex [Example 3]
- Solubility [1]: Soluble in NaOH pH = 8

Substance: iron (III) casein: N-acetyl-L-aspartylated complex [Example 2]
- Solubility [1]: Soluble in NaOH pH = 8

Substance: iron-acetyl-aspartylated casein [Fe-ASP]
- Changes in clinical and haematological profiles ([2]; controlled clinical trials, compared with iron protein succinylate (IPS)): virtually identical to those seen with iron protein succinylate (IPS)
- Safety ([2]; human, in vivo): No safety considerations were raised
- Clinical and haematological parameters after treatment ([2]; open clinical trials, all categories of patients with iron deficiency anaemia): highly significant improvements

Substance: iron-protein succinylate [iron succinyl casein complex]
- Gastrointestinal tolerability [3]: better gastrointestinal tolerability
- Gastrointestinal tolerability [4]: better gastrointestinal tolerability
